# From IntAct's records for PubMed 24418540
# Target: pebb_human CBFB (UniProt Q13951)
row,Substance,effect of a mutation on the interaction
1,"Virion infectivity factor (Human immunodeficiency virus type 1 group M subtype B (isolate HXB2) (HIV-1)), P69723 E88A;W89A",disrupting interaction strength
2,"Virion infectivity factor (Human immunodeficiency virus type 1 group M subtype B (isolate HXB2) (HIV-1)), P69723 W21A",disrupting interaction strength
3,"Virion infectivity factor (Human immunodeficiency virus type 1 group M subtype B (isolate HXB2) (HIV-1)), P69723 W38A",decreasing interaction strength
4,"Virion infectivity factor (Human immunodeficiency virus type 1 group M subtype B (isolate HXB2) (HIV-1)), P69723 W89A",disrupting interaction strength
5,"Virion infectivity factor (Human immunodeficiency virus type 1 group M subtype B (isolate HXB2) (HIV-1)), P69723 Y69A",decreasing interaction strength
